Test in all cases: SEC-MALS + other: mass photometry; co-expressed assemblies purified by Ni-IDA (AUG5 His tag), Q-FF and gel filtration; subunits confirmed by SDS-PAGE and mass spectrometry; SEC-MALS on Superdex 200 Increase 10/300, 200 µL at 1 mg/mL, 50 mM HEPES pH 7.5, 200 mM KCl, 1 mM MgCl2, 1 mM EGTA
Test [1] addresses AUG5 with C-terminal 8xHis tag (subunit of the hetero-octamer) (A. thaliana) (UniProt Q9FMB4).
Test [2] has as its target T1, AUG5 with C-terminal 8xHis tag (subunit of the hetero-octamer) (A. thaliana, UniProt Q9FMB4 1-796).
T1 construct: AUGMIN subunit 5 (AUG5), A. thaliana; subunit ORF in pET3a, assembled into the eight-subunit polycistronic vector; Subunit of m1; the assembly was captured on Ni-IDA by this chain; also called AUG5 (His); not shown: His8, C-terminal, kept
T1 sequence (looked up): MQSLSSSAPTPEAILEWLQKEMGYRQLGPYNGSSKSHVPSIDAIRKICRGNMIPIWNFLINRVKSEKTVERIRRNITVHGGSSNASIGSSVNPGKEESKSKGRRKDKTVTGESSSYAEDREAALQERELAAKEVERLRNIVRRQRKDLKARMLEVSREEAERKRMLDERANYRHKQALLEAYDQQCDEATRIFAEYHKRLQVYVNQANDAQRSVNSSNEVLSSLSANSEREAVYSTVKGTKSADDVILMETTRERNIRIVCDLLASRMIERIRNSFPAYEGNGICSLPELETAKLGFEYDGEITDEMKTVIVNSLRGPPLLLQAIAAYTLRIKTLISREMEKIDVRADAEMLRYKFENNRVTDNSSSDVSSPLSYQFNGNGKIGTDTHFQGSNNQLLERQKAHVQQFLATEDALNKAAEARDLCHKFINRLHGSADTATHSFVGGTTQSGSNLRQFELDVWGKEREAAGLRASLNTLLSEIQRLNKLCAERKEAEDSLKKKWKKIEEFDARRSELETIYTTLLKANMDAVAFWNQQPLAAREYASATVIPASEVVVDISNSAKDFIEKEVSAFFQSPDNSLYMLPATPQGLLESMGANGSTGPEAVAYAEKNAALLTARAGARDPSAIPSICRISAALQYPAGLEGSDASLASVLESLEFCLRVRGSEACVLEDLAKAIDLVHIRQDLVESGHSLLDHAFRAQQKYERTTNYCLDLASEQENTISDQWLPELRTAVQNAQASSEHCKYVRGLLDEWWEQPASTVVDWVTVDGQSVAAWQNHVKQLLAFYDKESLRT
The settings on record: both partners purified.

Test [3] addresses T2, AUG5 with C-terminal GFP and His tags (subunit of the hetero-tetramer) (A. thaliana, UniProt Q9FMB4 1-796).
T2 construct: AUGMIN subunit 5 (AUG5), A. thaliana; subunit ORF in the four-subunit polycistronic vector; Subunit of m2; source: E. coli SoluBL21, co-expressed with AUG1, AUG3 and AUG4, purified as part of the assembly (Ni-IDA, Q-FF, Superdex 200); not shown: His tag, C-terminal, kept
T2 sequence (looked up): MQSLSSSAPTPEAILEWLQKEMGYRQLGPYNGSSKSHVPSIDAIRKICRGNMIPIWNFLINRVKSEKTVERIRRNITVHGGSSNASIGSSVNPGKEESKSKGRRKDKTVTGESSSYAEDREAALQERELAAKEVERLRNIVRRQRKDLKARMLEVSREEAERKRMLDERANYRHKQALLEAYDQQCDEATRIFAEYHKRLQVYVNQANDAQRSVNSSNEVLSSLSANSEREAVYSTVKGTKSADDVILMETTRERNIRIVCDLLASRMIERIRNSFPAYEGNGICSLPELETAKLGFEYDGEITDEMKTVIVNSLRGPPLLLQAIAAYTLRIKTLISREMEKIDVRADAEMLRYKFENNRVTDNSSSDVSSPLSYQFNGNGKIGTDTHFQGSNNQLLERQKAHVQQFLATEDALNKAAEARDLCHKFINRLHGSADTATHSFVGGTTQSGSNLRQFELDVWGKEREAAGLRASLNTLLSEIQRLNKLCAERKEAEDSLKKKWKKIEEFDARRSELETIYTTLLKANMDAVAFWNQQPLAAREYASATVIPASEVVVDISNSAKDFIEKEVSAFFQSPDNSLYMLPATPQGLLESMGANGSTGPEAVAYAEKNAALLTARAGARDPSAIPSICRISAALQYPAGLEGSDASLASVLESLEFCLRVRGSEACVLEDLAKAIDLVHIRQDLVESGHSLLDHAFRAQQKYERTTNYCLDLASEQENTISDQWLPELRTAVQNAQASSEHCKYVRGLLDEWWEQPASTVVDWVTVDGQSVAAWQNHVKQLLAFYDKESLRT
The note with it: both partners purified.

A word on the stoichiometry N: it is the number of molecules, sites or subunits per partner or assembly.

As for “AUG8 C-terminal region (residues 383-644) (from UniProt Q9SUH5 383-644) (domain or fragment)”, the stoichiometry N (subunit per assembly) in test [1] was 1.

B1: AUG7 (A. thaliana Augmin subunit 7) (natural protein, UniProt Q0WTP1 1-329, looked up)
chain: MAAKQMEEIQKKLRLLSYPRANAPAQSLLFAGMERYALLEWLFFKLLGDKSPFSQQNLQGDAGVRDEETVRIQYLAEIAKFLGITPTVDIEAIQGHGTYEDRMEMLRNIVDLVEASLFSDNQEWSIDEQVAKDIQLIDAIAERQSLIFSEECKLFPADVQIQSIYPLPDVSELETKLSEQAKILSNLQQKVDDLAAKHAYNPDEEYTEVESQLRARLESFLETARAFNTIYTKEIRPWTHMMEVPQLHGFGPAANRLLEAYNMLLKFLGNLKNLRDSHAALSIGSSGTVAGEPSSVTRIVSDCEAALTVLNRDLGILSASIAREQGERL
notes: AUGMIN subunit 7 (AUG7), A. thaliana; codon-optimised ORF in pET3a, assembled into a polycistronic vector; N-terminal CH domain; Subunit of m1; source: E. coli SoluBL21, co-expressed with the other Augmin subunits, purified as part of the assembly
Consider B1, for which the “stoichiometry N” value in test [2] was determined as 1 subunit per assembly.

B2: AUG3 (A. thaliana Augmin subunit 3) (natural protein, UniProt Q0WQE7 1-617, looked up)
chain: MSSARLCSLVAELGYEGAGKLDPDSFEWPFQYDDARPILDWICSSLRPSNVLSLAELSLYEQFQRDGKLLEGDDLDQAYDSISAFSSRRNNQEAVFGAEESIKEVRDATLAHKAEALELQRQLRRLQTQYDLLTGQSSALIQGRRARVAATSAVSGQITAIEDSLSARNLQMNGVLGRLASTSQELAHYHSGEEDGIYLAYSDFHAYLAGDSACTKELNQWFAKQLDTGPYRLVAEEGKSKCSWVSLDDTSNMLRDLEKSQHQRVAELQRLRSIFGTSERQWIEAQVENAKQQAILLTLKSQVTSVEAHIHFDLHSLRRKHADLVEEISTLYQKEEKLLSETIPELCWELAQLQDTYILQGDYDLKVMRQELYISKQKVFINHLVNQLARHQFLKLACQLEKKNMLGAFSLLKVIESELQGYLSATRSRVGRCSALIQAASDVQEQGAVDDRDSFLHGVRDLLSIHSNTQAGLSTYVSAPAIIQQIVALQSDLSSLQSDLENSLPDDRNRCINELCTHIQNLQQLLFASSTTAQPILTPWPLMKELDEMGKINSKLSTAVEEVTLEHRNKREIVKHHAKDVELQRRVFVDFFCNPERLRNQVRELNALVRARQASSS
notes: AUGMIN subunit 3 (AUG3), A. thaliana; subunit ORF in pET3a, assembled into polycistronic vectors; Subunit of m1 and m2; source: E. coli SoluBL21, co-expressed with the other Augmin subunits, purified as part of the assembly
On to B2, for which the “stoichiometry N” value in test [2] and in test [3] was 1 subunit per assembly in each case.

B3: AUG1 (A. thaliana Augmin subunit 1) (natural protein, UniProt F4IK01 1-299, looked up)
chain: MSDVTGDLAAVSEAKGGSDAARISEVKAWLTSQFEAVGKEVPNFEYTHRSITHLYNLATASQAKSQAATIVANDFRLKASEYRAQAARIREILESAGMSQESLPSNVVSSAQVLANVANLLNIRDTELSSFLVAMGDISLRKTGVEEKRAKAQKESNALLDYTRKAIQRLTYLKKILAQLEDDVVPCESQMENWKTNLEVMAVKEEQYIQQYKKYEQMLLNRVGYTPKISHRELVEMAEHRKELDKMTKPVLDTLRSYQDLPPDKALAALAIEDKKRQFTAAEKYLEEVLQSALETNDE
notes: AUGMIN subunit 1 (AUG1), A. thaliana; subunit ORF in pET3a, assembled into polycistronic vectors; Subunit of m1 and m2; source: E. coli SoluBL21, co-expressed with the other Augmin subunits, purified as part of the assembly
On to B3, for which the “stoichiometry N” value in test [2] and in test [3] was 1 subunit per assembly throughout.

B4: AUG6 with C-terminal StrepII tag (natural protein, A. thaliana, UniProt Q94BP7 1-741, looked up)
chain: MTMDREKERELELESAMYTNCLLLGLDPNVIGLGASNGTPRVGLFRHSNPKLGEQLLYFILSSLRGPAQSSKDFDKVWPIFDSAQSRDFRKVVQAIISELESQGALPRSNSRVSSLATCCGPRFVELLWQLSLHALREVHRRTFPADVASNPLPSSLTDVSFSHAATLLPVTKARIVLERRRFLKNAETAVQRQAMWSNLAHEMTAEFRGLCAEEAYLQQELEKLNDLRNKVKQEGEVWDDLVSSSSQNSHLVSKATRLWDSIMARKGQHEVLASGPIEDLIAHREHRYRISGSALLAAMDQSSQVPRAELLSAHSDDSASLADDKELSDGSYTNMHDHSLVDSFETASSQASDETLSRVDDRGGKINQTVDVAEVIRRWTHALQRIHKQSLLLAKANDGDGPDILRTASDGGTSGHVESLAATLTEHQQHLASFQVLINQLKEVSPAIQKSISECTEMVNSLPPTLPPVTRSNGQASSLLQSQGSGRIMEGVSNDVAELTSTMSNVQLEKVSASPTLKLPQLFSSTPTSSGKGGNGQKRQTMASQVNKMESLSEKNSTDQALSNARPDNLPTDTSSSFVHNLKKSVREAALLIPSSAGSSRDSQSDEGSEHYFVPLSATGFSRFPSETKALPLRGSRALTSLSEPSFLEPNVPDSFAPSKYSDIPDTYDDLDSFKDYDNGNGFLSVAGSNSVASDAQQSFYDIDDQVFSPPLLMDSSLLSDAYEDLLAPLSETEAALMEH
notes: AUGMIN subunit 6 (AUG6), A. thaliana; ORF in pET3a, assembled into a polycistronic vector; N-terminal CH domain; its C-terminal region is prone to degradation; Subunit of m1; also called AUG6-StrepII; source: E. coli SoluBL21, co-expressed with the other Augmin subunits, purified as part of the assembly
As for B4, in test [2], the “stoichiometry N” value was determined as 1 subunit per assembly.

B5: AUG2 (A. thaliana Augmin subunit 2) (natural protein, UniProt O48767 1-296, looked up)
chain: MSMGGDTTWVGKKPIRRIGGLSDALSIASDLGFAVAPPPSQEELQSFASSNGERGDDLIRVLRELSVVQRKIADLQVELQGRKDDKNVAHLTHVGEMQKKIETLSRITQILKDVIQNKDRIIARLQQPYSLDCIPVEAEYQKQFSELLMKAASDYGALTASVSDFQWSQNFKEPPSVWGEMLRPIPVALASCTRFFEAMSAMRESFATLQELRVGNSAVSLPTTPGGNEMTHRDSDCVTPPQGRIESSFDDLAVHKTRRQNNDQNEEEEEEEEEEDGNNNGNRRLSWPPSVKKSSV
notes: AUGMIN subunit 2 (AUG2), A. thaliana; codon-optimised ORF in pET3a, assembled into a polycistronic vector; Subunit of m1; source: E. coli SoluBL21, co-expressed with the other Augmin subunits, purified as part of the assembly
As for B5, the “stoichiometry N” value in test [2] stood at 1 subunit per assembly.

B6: AUG4 (A. thaliana Augmin subunit 4) (natural protein, UniProt Q8GYM3 1-423, looked up)
chain: MVKALQGAAQNLPADVNQLIDQLERHCLAPDGSLVTKSVYSDLQLAREEMSRERLRYLEAMAIYCEAVAMVEEYQQAISVANHGGIRDVQGLYPQLGLKNSPQVYETLEHRLVVAEAAQKLRLPLISDGGEIHEEEIEKWSILSRSSLDSASTSFTISSTSNSVNYANSSANSVAGGISLSAVDTDVVGGVPNRFLGITPAYLSYVQLQNTISMDMADYQMFLAREIEGRLKEKCDKLADAIVDDTDSSTGNRNSSARLPERVKFIIEEIERDEAALREDLYSADRKFAEYYNVLEQILGVLIKLVKDLKLEHQHKYNEMQKTWLCKRCETMNAKLRVLENVLLLETYTPDSISALHNIRNYLVEATEEASAAYNKAVTRLREYQGVDPHFDTIARQYHDIVKKLENMQWTIHQVEMDLKSHD
notes: AUGMIN subunit 4 (AUG4), A. thaliana; subunit ORF in pET3a, assembled into polycistronic vectors; Subunit of m1 and m2; source: E. coli SoluBL21, co-expressed with the other Augmin subunits, purified as part of the assembly
B6: the “stoichiometry N” value in test [2] and in test [3] was 1 subunit per assembly in each case.
